Measurements published in publication PMC8002388.

Legend:
[1] = target: light-activated rhodopsin in rod outer segments (ROS) (UniProt P02699)
[2] = target: light-activated rhodopsin in rod outer segments (ROS) (UniProt P02699); remark: listed apart in the source

UniProt P02699, sequence (P02699 whole entry): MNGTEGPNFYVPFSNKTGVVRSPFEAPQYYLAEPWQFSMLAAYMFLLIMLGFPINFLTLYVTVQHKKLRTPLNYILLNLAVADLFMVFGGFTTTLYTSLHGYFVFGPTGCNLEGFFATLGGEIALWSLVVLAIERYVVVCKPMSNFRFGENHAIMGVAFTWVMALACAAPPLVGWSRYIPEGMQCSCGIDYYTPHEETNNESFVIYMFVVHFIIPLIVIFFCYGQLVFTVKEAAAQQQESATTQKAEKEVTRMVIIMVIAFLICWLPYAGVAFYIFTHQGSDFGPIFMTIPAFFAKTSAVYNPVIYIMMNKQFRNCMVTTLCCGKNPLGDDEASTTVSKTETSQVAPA

Row | Substance | normalized Vmax of rhodopsin (ROS) phosphorylation when [ATP] is varied [1] | Km for rhodopsin, phosphorylation of light-activated rhodopsin in ROS (50 nM-5 µM) by 20 nM GRK2 with 150 nM human Gβ1γ2 and 5 µM ATP [2]
1 | C-terminally H6-tagged bovine GRK2 E36A (S670A background) (from UniProt P21146 1-689) (enzyme) | 0.9 A.U. | 0.13 µM
2 | C-terminally H6-tagged bovine GRK2 E532A (S670A background) (from UniProt P21146 1-689) (enzyme) | 0.8 A.U. | 0.14 µM
3 | C-terminally H6-tagged bovine GRK2 L33N (S670A background) (from UniProt P21146 1-689) (enzyme) | 1 A.U. | 0.36 µM
4 | C-terminally H6-tagged bovine GRK2 L536N (S670A background) (from UniProt P21146 1-689) (enzyme) | 1.2 A.U. | 0.18 µM
5 | C-terminally H6-tagged bovine GRK2 L547N (S670A background) (from UniProt P21146 1-689) (enzyme) | 0.8 A.U. | 0.17 µM
6 | C-terminally H6-tagged bovine GRK2, wild type (S670A background) (from UniProt P21146 1-689) (enzyme) | 1.3 A.U. | 0.24 µM
